Consider one substance from paper PMC10171809.

The target in the test is HEXIM1 (UniProt O94992). As to the kind of experiment: co-immunoprecipitation. To be noted: reference: wild type; sites S43.

Regarding METTL3 (from UniProt Q86U44) S43A, the “binding against the reference” value was “stronger”.
